Consider twelve sequences from a protein production outcome set (Wang et al. 2014).

A short description of the data set: label from the status in PepcDB records.
With “MKAYPYIFLLLISSSLAASQEDKLYEAARSALNDNKYSEALIHVKNILKISPEHLASNILIAEILLADGSASAAEASLTKAVSLGANKKQLRLLFAESYIMQGQYNKTLDYLPEQTNDDKLAAKIYVLRGDAHLGLRQLKLSQNDYNTALAFDAKNIDAKLGLAQIAVNYFQFHQAEKLVDEVLSGYIPPIKAWNLKASIQQSLGNNELALNAINQALLIDKNNIQSLIFASTINIELQQFELAEKYADTVLEQVPNEPKAEFIKAMVQVRKNENAGFESAIETVAQVLDHLSEDVLRSNPSYYYLASIILFHQQKHEAARQYIDDYLLIDENNINALTLAATIELVEKKPMQAKTLLSRANFLDPDNPKILSMLGMTYLELRQYEKAHFYLAKVKELKPNLGIADTQLAQSYLATGKPEKAIKHLLTASAAEYDPTVVGLLLVESYIKSGKMNKGISVAKNLAENMPDNANIQHHLGYIYQISGEIEKAKHQFEQALIIEPNHAKSIISLANLDYQKGNADIAIDRLKAALIISANDIDLITALAKFYNRTNNSAASVILLEEPFKLDNQNEELLKNLIVSYVGDKQLMLAIETLNTYLLNQRKTVELYLMLASLQIMNSDVNSAVSAYKSAIKQDGDKGTIYLLIAHAYQRFSKVPEAITAYKKSMAWDGDNDKAIIGLAQLYNAENDTDSAIKLIKSFEVNHQLSAQLVEVLANSYLRINQYKLAEMYYKKRIKLASNDSSVVGLNLIYRATKRTSKAVDLLTTSLNDRPNSLFLNTALAELYIDQSQWLNADKIYQTLVQLYPKQPAILNNASYVALNLSDYPRAEALVKRSLALVDNQPDSLDTLGWVYYHTKEFNKALPLFRKALAINNSNPAVKYHLALTLKALNRDKEAIKLMVDVVNSDYSQKADADVLLKQWLK”, the protein production result is on record as “failed”.

As to “MDLHGCAKNQVDAELIIGIMENLSWKNTSDPDEADLIIVNSCGFINSAKEESINAVLQAKAAHPKAKVLLAGCLAERYADILKNDLPEADGIFGNGNLSLLPQLIDSMFPKKTSDEKFIEKTLVPPQIGICGGERPKILNFPRSTYIKITEGCDNFCSFCAIPIIRGRLRSRPIKDICDEIKTFLKKSFYEFNLIGQDLAAYQTGKDDLSEDELHRENCSGLALLLKSISKIKGNFKIRLLYIHPDHFPLDILPIMTADKRFLPYFDIPFQSGAQKIIRAMNRNGAAEVYLDIIKNIREAFEKTNSPYGEPQIRTTFLVGFPGETDEDFNETIKFLKELRPLWSGGFTYSREEDTPSYSFKGKVPKKTAEARLAEIQNAQTSITEKKLDSFIGKEIEVLVEELIQAEDKTFLALGRAWFQAPEVDGAVVLNFNLNKKDIDGNPIAPGSIVKARIAARNGFDLEAVAV”, the protein production entry is “failed”.

With “MSYLSQAPLYSSIPRKNCPIAWEGQFTRGDKGTSTISFEAVASHDLWIWHTFFGCASTLNDINFLDRSPVFDDIEQGNTPRVNFFVYQRQYNMAYYLADGIYPSYPTFVKSIRLPQSEPDKLFVQLQEGCRKDIERAFGVLHARFKIIWNIADLAIIMRSCIILHNMIVENERDTYAQHWTDYDQSKESGSSTPQPFSTEVLHAFANHVHARSKLRDSICTS”, the protein production entry was “not failed”.

Take “TNHKGEKINVAVKTCKKDCTLDNKEKFMSEAVIMKNLDHPHIVKLIGIIEEEPTWIIMELYPYGELGHYLERNKNSLKVLTLVLYSLQICKAMAYLESINCVHRDIAVRNILVASPECVKLGDFGLSRYIEDEDYYKASVTRLPIKWMSPESINFRRFTTASDVWMFAVCMWEILSFGKQPFFWLENKDVIGVLEKGDRLPKPDLCPPVLYTLMTRCWDYDPSDRPRFTELVCSLSDVYQMEKDIAMEQERNARYRTPKILEPTAFQE”: the protein production result is on record as “failed”.

“MLTTLSCCCNMPVVKVNCWNNMKVQIKSITQWGGVLLLSFSSCYVNANKLIKPNILFIAVDDLKPLIRDYGTAKVQTPNIDKLASQSTVFTRAYSQYPVCGPSRMSILTGLRPESNGIMNLKDKIRDVNPSVITLPQFFKNNGYETAATGKIFDPRNTTSRSEEEVLSWSIPYQRPKHGLKGKTRLAVESIDEPDEKFVDGGILKRGKKLLKQMANKNKPFFLAVGFKKPHLPFVAPKKYYDLYSRESFDLASYQSAPEDADTTYLFHKNQELRGYKPTPIKGGEIKPYPKGKLSSAHQKELLHGYFASVSFIDSLVGELLEELEKTGQAENTVIVFWGDHGFHLGDHGLWGKHTTMEQANHVPLIIKIPGSKANRYAKPVELLDVFPSLTEAAGLSIPNNLQGTSLVSLVTGKLKSIDKVAISQYKRKGAYGYSMRTEQYRYTQWVTPSGKVVYRDLYDLINDPLETKNIINTPEGKLLEVELNKQLHTNSAGLKRLKLEHHHHHH”: the protein production result is recorded as “failed”.

“MESMSMNHRVVRHCHNKKLQQSRYSPYSKENIISTIEKEMQKDEAIRLGVELSLFVAETMVLLSDNLRSMLLFCLWVLTNAECTYFTDPVVGRLHCVMLYVLETYIKPKNGVYLADVKSNQWEVFVKSCKSFVFGIRELDRIVLILGKRESSSCEVVKTSDFEHCNQELKKLEETLRSAKDVSEANGFAREVIKSNILCLWKSLFETSQPKVINLKNRTLDMFKPLLNQAREITCSSLIASLHI”: the protein production entry was “failed”.

For the sequence “MADAPIDIFQSILSRKSIRAFTDQPVTQETIREILKLAARAPSGTNLQPWQVIVLTGKILQKVGQELSQLVLSGIKGEREYHYYPRQWREPYLSRRRKVGLDLYKSLGIQKGDQEKMLHQKAKNFLFYGAPVGLLFTIDHDMEMGSWLDLGMFMQTIMLAARGFGLDTCAQAAFADYHKQIRSLLSVPSDRHIICGMALGYRDMNAPENNFETEREPIDNFVHFIKSYP”, the protein production result was “not failed”.

“MVISSKITDDCSYVKCLSFMMKSRTGNILLAQPENLAHDDDLSQSLLSQVTAVWLWTSLSYGGKPIFNRGISQLVTKKWTIIFNTENTNNHVSLPAPQEISPRLRLASSGTWRLVIGTWE”: the protein production entry was “failed”.

Regarding “MPERRTVALVTLGCARNEVDSEELAGRLEADGWQLVEDAEDADVAVVNTCGFVEAAKKDSVDALLEANDLKGHGRTQAVVAVGCMAERYGKELAEALPEADGVLGFDDYTNISDRLQTILNGGIHAAHTPRDRRKLLPISPAERQSAGADVALPGHGAPEGLPEDLPEGLAPESGPRAPLRRRLDGSPVASVKLASGCDRRCSFCAIPSFRGSFISRRPSDVLGETRWLAEQGVKEVMLVSENNTSYGKDLGDIRLLETLLPELAEVDGIERVRVSYLQPAEMRPGLIDVLTSTPKIAPYFDLSFQHSAPDVLRAMRRFGDTDRFLELLDTIRSKAPQAGVRSNFIVGFPGETEADLAELERFLTGARLDAIGVFGYSDEEGTEAATYGHKLDEDVVAARLARVSRLAEELVAQRAEERVGETVHVLVESIDDEEGAVGRAEHQAPETDGQVLFTSGEGLTVGRMVEAKVVGTEGVDLVAEPLPGSLVCTEEAGR”, the protein production result is listed as “failed”.

Regarding “MRPALTTVQVFALLAVALSTLVFAASFAVDTTSARPEPVAFDNTVQRGVTAADEQIARNRSISIPRAQVFYSQYRYVVGYVGIGQAVTALTEPGHEQQFGYPLAVYVSDYSDRPVRCGDDGSLRTATPPDWVEANQAHYVVDGSARVPSGPAVVPFADRDDAAAFTETCGGQIIDWETLKTYSFDLKQAAAVREQVGPRRSGADATVQAARQHRNRPVSVEVGTDAPTVQAAVDAAPPNTTVVVPAGTYNEQVMIDKPLSLSGPGATLDGGGNGTVVTVTADRVGVTGFEITGIGNTTVGDPTQSNDSAWDATVTTAYGNSDAAVTGRNASGLYVANITVETPASGVVLRRTPGAVVENVTVNGTADWQDGFMGVIGMHRPIVVQDSVFNGGRDGVYLHRADGTAVRNNAFRDNRFGVHLMYTSRSLVADNVARGQEYAGVVVMTNPVANAIVGNDVRHSGSGIMLAGSRSYIAHNVVVDTTQAMSTNADRSLYEHNVLYGNDIGVRASTVVPSNIVTDNDFIANDRHAISGPGPLRVYTHDGRGNYWSGAYDLTGGTGPVLAQSYSPTDSVDRRLHQTDAAVVLRAAPSVRGLRALRGTTPGFRRGSIVDRAPLADPANPETVRRLRNETSMEGAA”, the protein production result was “failed”.

In the case of “MKKTLLAIVAVSALSACRQAEEGPPPLPRQISDRSVGHYCSMNLTEHNGPKAQIFLNGKPDQPVWFSTIKQMFGYTKLPEEPKGIRVIYVTDMGNVTDWTNPNADTEWMDAKKAFYVIDSGFIGGMGAEDALPFGNKEQAEKFAKDKGGKVVGFDDMPDTYIFK”, the protein production result is reported as “failed”.

Turning to “MCGVELDSLISQVKDLLPDLGEGFILACLEYYHYDPEQVINNILEERLAPTLSQLDRNLDREMN”, the protein production result is “not failed”.
